Test results as given in publication PMC5479800, “Thioesterase YbgC affects motility by modulating c-di-GMP levels in Shewanella oneidensis” (Scientific Reports, 2017).

How the values were obtained:
Test in all cases: purified protein
Type in all cases: biochemical, Shewanella oneidensis
Details in all cases: 25 °C, 200 mM sodium phosphate, pH 7.5 in table title, pH 7.0 in methods
[1] = substrate: CC(=O)SCCNC(=O)CCNC(=O)[C@H](O)C(C)(C)COP(=O)(O)OP(=O)(O)OC[C@H]1O[C@@H](n2cnc3c(N)ncnc32)[C@H](O)[C@@H]1OP(=O)(O)O
[2] = substrate: CCC(=O)SCCNC(=O)CCNC(=O)[C@H](O)C(C)(C)COP(=O)(O)OP(=O)(O)OC[C@H]1O[C@@H](n2cnc3c(N)ncnc32)[C@H](O)[C@@H]1OP(=O)(O)O
[3] = substrate: CCCC(=O)SCCNC(=O)CCNC(=O)[C@H](O)C(C)(C)COP(=O)(O)OP(=O)(O)OC[C@H]1O[C@@H](n2cnc3c(N)ncnc32)[C@H](O)[C@@H]1OP(=O)(O)O
[4] = substrate: CCCCCCCC(=O)SCCNC(=O)CCNC(=O)[C@H](O)C(C)(C)COP(=O)(O)OP(=O)(O)OC[C@H]1O[C@@H](n2cnc3c(N)ncnc32)[C@H](O)[C@@H]1OP(=O)(O)O

Protein	Km [1]	kcat [1]	kcat/Km [1]	Km [2]	kcat [2]	kcat/Km [2]	Km [3]	kcat [3]	kcat/Km [3]	Km [4]	kcat [4]	kcat/Km [4]
SoYbgC (S. oneidensis YbgC) (Shewanella oneidensis MR-1) (protein) MTFNWPISVYYEDTDAGGVVYHSNYLNFFERARTEWLKALGVSQTALLADDTAFVVKRAELDFKKAARFEQNLIVETKVIELKKASLVFHQRLVDHLGDCYCEGTVLVACVALSRMRPRAIPLNIVQEFDSAS	3.5 ± 0.4 µM	8 ± 0.7 s⁻¹	2.3e+06 M⁻¹ s⁻¹	4.8 ± 0.6 µM	3.9 ± 5 s⁻¹	810000 M⁻¹ s⁻¹	17 ± 2 µM	1.3 ± 0.1 s⁻¹	76000 M⁻¹ s⁻¹	34 ± 4 µM	0.15 ± 0.01 s⁻¹	4400 M⁻¹ s⁻¹
SoYbgC (S. oneidensis YbgC) (Shewanella oneidensis MR-1; D15N) (protein) MTFNWPISVYYEDTNAGGVVYHSNYLNFFERARTEWLKALGVSQTALLADDTAFVVKRAELDFKKAARFEQNLIVETKVIELKKASLVFHQRLVDHLGDCYCEGTVLVACVALSRMRPRAIPLNIVQEFDSAS	231 ± 37 µM											
